Earlier results in PMC8160820.

Target: PEDF-R (Homo sapiens) (UniProt Q96AD5)
Chain of UniProt Q96AD5 (Q96AD5 whole entry): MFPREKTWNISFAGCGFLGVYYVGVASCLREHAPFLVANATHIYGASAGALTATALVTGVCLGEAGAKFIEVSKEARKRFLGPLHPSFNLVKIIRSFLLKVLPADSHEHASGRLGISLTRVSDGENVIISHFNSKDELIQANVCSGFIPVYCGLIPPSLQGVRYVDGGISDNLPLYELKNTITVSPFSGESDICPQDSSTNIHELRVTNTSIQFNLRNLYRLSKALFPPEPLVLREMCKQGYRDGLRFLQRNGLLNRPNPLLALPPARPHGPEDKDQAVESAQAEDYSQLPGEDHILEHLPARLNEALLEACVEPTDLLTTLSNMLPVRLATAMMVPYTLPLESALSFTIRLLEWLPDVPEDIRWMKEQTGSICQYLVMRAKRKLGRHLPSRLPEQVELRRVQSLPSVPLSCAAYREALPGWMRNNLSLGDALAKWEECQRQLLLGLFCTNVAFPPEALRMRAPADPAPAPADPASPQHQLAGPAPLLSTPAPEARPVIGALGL

- Kd: 3 nM
Substance: PEDF (from UniProt P36955)
